Results on one substance are retold here after patent publication US12358959B2, “Compositions and methods for oligodendrocyte development” (CHILDREN'S MEDICAL CENTER CORPORATION, priority 2016, dated 2025).

Entries after “also recorded” stand apart in the source; their conditions may differ.

One assay has as its target T1, GPR56^N (Mus musculus, UniProt Q8K209).
T1 construct: Using the soluble N-terminal fragment of GPR56 (GPR56^N); made in house
Nature of the assay: In vitro biotinylation/proteomics pull-down from mixed glial cell lysate with mass spectrometry. The following applies: peptide sequences specific for binding to GPR56^N.
Source text: To identify the ligand of GPR56 in OPCs, an in vitro biotinylation/proteomics approach was employed using single-step capture on streptavidin beads to purify the binding partner(s) of GPR56 (FIGS. 2A-2B). Proteins with more than five identified tryptic peptides in the Mass Spectrometry (MS) output from three independent experiments are listed at Table 1.
(§1) GPR56^N and GPR56^Ndel fusions proteins with either mFc or hFc tag were generated as previously described (Luo et al. Proc Natl Acad Sci USA 108, 12925-12930, 2011). BirA enzyme was used to in vitro biotinylate GPR56^N-mFc-biotag protein as previously described (De Laurenzi and Melino Mol Cell Biol 21, 148-155, 2001). Mixed glial cell lysate was incubated with biotinylated GPR56^N protein in lysis buffer [20 mM Hepes (pH 7.3), 150 mM NaCl, and 5 mM MgCl2] with protein inhibitor mixture (Roche Molecular Biochemicals) and 1% Brij 96 (Fluka). Streptavidin beads (Sigma) were used to affinity purify immunocomplexes. GPR56-associated proteins were eluted in 2×SDS loading buffer, subjected to SDS/PAGE. The whole lane was used for MS at the Taplin Biological Mass Spectrometry at Havard Medical School. MS data were searched against the mouse International Protein Index (IPI mouse 339) database using the protein identification software Mascot (v2.2.04, Matrix Sciences) (Luo et al. Proc Natl Acad Sci USA 108, 12925-12930, 2011).
as §1, with “al.,” for “al.”, “(Stacey et al., J” for “(De Laurenzi and Melino Mol Cell”, “Chem 277, 29283-29293, 2002).” for “21, 148-155, 2001).”, “(20” for “[20”, “[pH 7.3],” for “(pH 7.3),”, “MgCl2)” for “MgCl2]”

Another assay relates to cerebellar slices. Nature of the assay: Remyelination of LPC-demyelinated cerebellar slice cultures. To be noted: Gpr56+/+;Tgm2−/− cerebellar slices, LPC 24 hr, 4 days of remyelination, TG2 20 nM; listed as Recombinant TG2. Type of assay: cell-based, mouse. The text has this:
FIG. 12D provides composite images created in Image J showing myelinated axons (black) for quantification. FIG. 12E is a graph showing percentage of myelinated axons after remyelination. Remyelination was reduced in cerebellar slices that lacked OPC-derived GPR56. *P=0.0135, paired t-test, N=5 per genotype. FIG. 12F provides representative images of cerebellar slice cultures from P10 Gpr56^+/+; Tgm2^−/− and Gpr56^−/−; Tgm2^−/− mouse cerebella that were demyelinated with LPC for 24 hr followed by 4 days of remyelination in the presence or absence of TG2 (20 nM). Slices were immunostained with NF200 (white) and MBP (light gray); myelinated fibers appear yellow in merged images. Scale bar, 100 μm.
Gpr56^fl/fl;PdgfrαCreER^− and Gpr56^fl/fl;PdgfrαCreER^+ P7 pups were injected with tamoxifen (50 mg kg^−1) for 3 days before the cerebellar harvesting. All cerebella were harvested on P10 and placed in ice-cold Hank's buffer (Fisher Scientific) before being cut into 300 μm thick sagittal sections with a vibratome (Leica Biosystems). Three slices were placed onto inserts (Millicell 0.4 μm, Millipore) in media containing 50% MEM, 25% Horse Serum, 25% Hank's Buffer, 1% GlutaMax, 5 mg/ml Glucose. […] Quantification of myelinated fibers was performed using Image J by subtracting background and applying threshold for both red and green channel, before measuring both myelinated and unmyelinated axon fibers.

Another assay deals with T2, GPR56 (Mus musculus, UniProt Q8K209).
T2 construct: expressed in transfected cells; host or cells: HEK 293T
Nature of the assay: TG2 activation assay: GPR56 NTF released into supernatant of HEK 293T cells (Western blot). Type of assay: cell-based. The following applies: 10 min, HEK 293T transfected with mouse Gpr56. Here is the method: HEK 293T cells were transiently transfected with mouse Gpr56 cDNA. Twenty-four hours after transfection, the cells were subject to serum starvation for 36 hr followed by the addition of recombinant TG2 250 nM with/without recombinant laminin-111 12.5 nM, or acetic acid as control for 10 min. The conditioned media were harvested, filtered, and concentrated as previously described. Equal volumes of the concentrated media were used for Western blot (Luo et al., PLOS One 9, e100043, 2014), while the cell pellets were used for GTP-Rho pull-down assay.

T1 sequence (Q8K209 26-382 limits assumed): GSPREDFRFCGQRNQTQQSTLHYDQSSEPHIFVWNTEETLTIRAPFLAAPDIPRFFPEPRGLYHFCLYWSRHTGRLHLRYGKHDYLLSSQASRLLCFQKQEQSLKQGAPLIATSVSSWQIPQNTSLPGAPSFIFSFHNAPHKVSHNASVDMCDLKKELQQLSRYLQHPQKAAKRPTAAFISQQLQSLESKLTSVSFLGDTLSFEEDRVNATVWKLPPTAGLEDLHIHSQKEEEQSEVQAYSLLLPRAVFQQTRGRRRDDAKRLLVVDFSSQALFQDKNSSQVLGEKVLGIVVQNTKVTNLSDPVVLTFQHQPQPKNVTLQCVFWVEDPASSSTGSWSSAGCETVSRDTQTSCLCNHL
T2 sequence (Q8K209 26-687): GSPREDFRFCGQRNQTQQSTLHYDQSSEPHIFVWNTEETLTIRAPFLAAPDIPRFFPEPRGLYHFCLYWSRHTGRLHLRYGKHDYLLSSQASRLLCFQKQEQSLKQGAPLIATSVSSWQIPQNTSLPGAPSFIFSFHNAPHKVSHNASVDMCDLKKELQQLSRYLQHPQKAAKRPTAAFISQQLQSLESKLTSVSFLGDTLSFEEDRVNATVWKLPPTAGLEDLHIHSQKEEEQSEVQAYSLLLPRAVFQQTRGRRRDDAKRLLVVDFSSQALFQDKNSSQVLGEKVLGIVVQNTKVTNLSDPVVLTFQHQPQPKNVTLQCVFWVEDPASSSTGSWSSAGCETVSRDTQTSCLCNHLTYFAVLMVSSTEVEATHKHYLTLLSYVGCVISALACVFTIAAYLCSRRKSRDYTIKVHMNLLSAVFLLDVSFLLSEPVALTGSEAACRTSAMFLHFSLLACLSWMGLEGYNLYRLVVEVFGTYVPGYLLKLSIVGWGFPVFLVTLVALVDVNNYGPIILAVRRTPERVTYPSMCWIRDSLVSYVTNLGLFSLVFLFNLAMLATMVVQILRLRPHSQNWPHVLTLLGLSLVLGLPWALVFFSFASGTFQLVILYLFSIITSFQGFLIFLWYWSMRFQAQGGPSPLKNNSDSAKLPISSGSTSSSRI

In the case of Transglutaminase 2 [TG2], the “Peptide Number (Exp1)” value with GPR56^N (experiment 1) came to 19. The “Peptide Number (Exp2)” value with GPR56^N (experiment 2) came to 20. Besides, the “Peptide Number (Exp3)” value with GPR56^N (experiment 3) came to 17. Moreover, the “Remyelination (percentage of myelinated axons)” value in the assay on cerebellar slices is reported as “rescued remyelination failure; also recorded: promotes remyelination”. Also, the results for the “Released GPR56 NTF in supernatant” value with GPR56 (TG2 250 nM alone vs control) and with GPR56 (TG2 250 nM with laminin-111 12.5 nM) were “n.s” and “removed the GPR56 NTF”, respectively.
